Experimental data published in patent US12324447B2, “Animal feed compositions and uses thereof” (priority 2015, dated 2025).
“Also recorded” adds a separate entry of the source. Read-outs that look alike come from different tables or passages of the source.

B1: SEQ ID NO: 303: mature GH24 lysozyme from Geomyces auratus (protein, listed as Geomyces auratus)
chain: AFPITGSTVNCRTGPGTSHGVKTSYKKGHEVTVSCQTGGTSVNGNSIWDKTSDGCYVADYYVKTGSSGYVKPKCGSSSGGGGGSSCGAPKSNAATVNLIAEFEGFVSHVYTDATGHPTVGYGHLCSNSKCSGIGYSIPISKANAKKLLAKDMAIAEKCITAMINKSRTLNLNQYGALVSWAFNEGCGAAKSSTLIKRINNGEKPSTVIPQELPKWVYGGSSVLPGLVRRRNAEIALAKKATSSKALPAHC
modifications: mat_peptide (1)..(250)
notes: mature GH24 lysozyme from Geomyces auratus
B2: SEQ ID NO: 267: mature GH24 lysozyme from Trichoderma harzianum, comprising LED (protein, listed as Trichoderma harzianum)
chain: YPITGDVVNCRTGPGTSYAIKKSYKKNQDISISCQTAGTSVNGNSIWDKTADGCYVADYYVKTGSSGYVTKKCTASSGGGSSSSYCKTINSAGVDLIAKWEGFVASPKPDPIGLPTVGYGHLCQQKNCREVKYKFPLTKTTAKELLLDDLPKYTKCLADYLNDKPKLNANQWAALTSWVFNVGCGNAKTSTLVKRLNNGEAANTVAAEELPKWRMAGGKVLPGLEARRKDEVKLFKTASSKQAYPKCQ
modifications: mat_peptide (1)..(248)
notes: mature GH24 lysozyme from Trichoderma harzianum, comprising LED
B3: SEQ ID NO: 280: mature GH24 lysozyme from Acremonium alcalophilum, mature sequence of SEQ ID NO: 6 of WO 2013/076259; no LED (protein, listed as Acremonium alcalophilum)
chain: QCVGPAINSAALNLIKEFEGWRPNIYRDPVGLPTVGYGHLCRDSSCSDVPYPIPLSVANGERLLRSDLATASSVVLNANQYGALVSWAFNVGCGATSTSTLIRRLNAGESPNTVAAQELPRWNKAGGQVLPGLVRRRAAEVELHRTSTSVRALPACS
modifications: mat_peptide (1)..(157)
notes: no LED
B4: SEQ ID NO: 273: mature LED (lysozyme enhancing domain) from Trichophaea saccata (protein)
chain: YPVKTDLHCRSSPSTSASIVRTYSSGTEVQIQCQTTGTSVQGSNVWDKTQHGCYVADYYVKTGHSGIFTTKCG
modifications: mat_peptide (1)..(73)
notes: mature LED (lysozyme enhancing domain) from Trichophaea saccata
B5: SEQ ID NO: 306: mature GH24 lysozyme from Ilyonectria rufa (protein, listed as Ilyonectria rufa)
chain: YKITGDNVNCRSGPGTSYSVKRSFKKGTDVTLSCQTTGENVLGTSIWDKTSYGCYVSDYYVKTGSSGFVVKKCGTCGAPKSNAATVNLISDFEGFRANIYKDAAGYPTVGYGHLCSNSRCTDVPYSIPLSKANGKNLLATDMTKFEKCITAMVSSSVTLNKNQYGALVSWAFNMGCGATKTSTLIKRLNQGQNVNTVLSTELPKWVYAGGKKLNGLVRRRNAEIALAKKKTTEKALPNKC
modifications: mat_peptide (1)..(240)
notes: mature GH24 lysozyme from Ilyonectria rufa
B6: SEQ ID NO: 264: mature GH24 lysozyme from Chaetomium thermophilum, comprising LED (protein, listed as Chaetomium thermophilum)
chain: PASAYAITGDNVNCRSGPGTSYAVKKVYKKGTDVKISCQTTGTNINGNNLWDKTSDGCYVSDYYVKTGSNGYVTSKCSSSGGSTCAAPKSNQATVDLIAEFEGFRANIYTDAAGYATVGYGHKCQKAKCAEVKYKIPLSKADGKKLLADDMRSFEVCITNMLNSKAKLNYNQFGALVSWSFNVGCGAAKSSTLIKRLNNGENVNKVLSEELPKWNKAGGKVLQGLVRRRAAEVALAKKSGSSQALPVKC
modifications: mat_peptide (1)..(249)
notes: mature GH24 lysozyme from Chaetomium thermophilum, comprising LED

Experiments:
[1] = system: Exiguobacterium undea (DSM14481); assay: Lysozyme activity turbidity assay (optical density drop at 540 nm); format: biochemical, Exiguobacterium undae; details: for Lysozyme activity against Exiguobacterium undea (in words): OD drop assay
[2] = system: Micrococcus lysodeikticus ATTC No. 4698; assay: as above; details: for Lysozyme activity against Micrococcus lysodeikticus (in words): OD drop assay
[3] = system: Clostridium perfringens DSM756; format: cell-based; details: for Diameter of clearing zone (mm): lysozymes 100 μg/ml, Bacitracin zinc salt 50 μg/ml; for Antimicrobial activity against Clostridium perfringens (in words): RDA
[4] = Binding of LED to Avicel suspension (SDS gel of supernatant); details: for Binding of LED protein to crystalline cellulose (in words): 25 mM Na-Acetate, pH 4.5, 25 mM NaCl
[5] = system: Micrococcus lysodeiktikus ATCC No. 4698 cells; assay: Binding of LED to M. lysodeiktikus suspension (SDS gel of supernatant); details: for Binding of LED protein to M. lysodiektikus cells (in words): 25 mM Na-Acetate, pH 4.5, 25 mM NaCl
[6] = tested conditions (1/10 MHB pH 7 and 1/2 MHB pH 6)

Molecule	Lysozyme activity against Exiguobacterium undea (in words) [1]	Lysozyme Activity against Exiguobacterium undae as measured by Optical Density Drop ([1]; assay pH 6 (Table 14))	Lysozyme activity against Micrococcus lysodeikticus (in words) [2]	Lysozyme Activity against Micrococcus lysodeikticus as measured by Optical Density Drop ([2]; assay pH 6 (Table 14))	Diameter of clearing zone (mm) ([3]; Experiment 1, 1/2 MHB pH 6)	Diameter of clearing zone (mm) ([3]; Experiment 1, 1/10 MHB pH 7)	Diameter of clearing zone (mm) ([3]; Experiment 2, 1/10 MHB pH 7)	Antimicrobial activity against Clostridium perfringens (in words) ([3]; 50% MHB, pH 6)	Antimicrobial activity against Clostridium perfringens (in words) [3, 6]	other results
B1	good activity	++++	good activity	+++						
B2	good activity	++++	good activity	+++	12	10	8	significant activity	showed antimicrobial activity	
B3			small amount of activity		0	0	0		do not have any activity; also recorded: did not inhibit growth	Lysozyme Activity against Exiguobacterium undae as measured by Optical Density Drop ([1]; assay pH 3-7): −; Lysozyme Activity against Micrococcus lysodeikticus as measured by Optical Density Drop ([2]; assay pH 4.5): +
B4										Binding of LED protein to crystalline cellulose (in words) [4]: did not bind; Binding of LED protein to crystalline cellulose (in words) ([4]; listed as LED protein): could not bind; Result: LED band intensity on an SDS gel (supernatant after incubation) ([4]; Suspension: Avicel, 30 minutes room temperature): +++; Binding of LED protein to M. lysodiektikus cells (in words) [5]: binds; Binding of LED protein to M. lysodiektikus cells (in words) ([5]; listed as LED protein): able to bind; Result: LED band intensity on an SDS gel (supernatant after incubation) ([5]; Suspension: M. lysodeiktikus, 30 minutes room temperature): +; Result: LED band intensity on an SDS gel ([5]; Suspension: None (untreated LED sample, reference for both suspensions)): +++
B5	good activity	++++	good activity	++						
B6	good activity		good activity		10	9	7	significant activity	showed antimicrobial activity	Lysozyme Activity against Exiguobacterium undae as measured by Optical Density Drop ([1]; assay pH 6): ++++; Lysozyme Activity against Micrococcus lysodeikticus as measured by Optical Density Drop ([2]; assay pH 5): ++++
